# T1: VENTX HD fragment (UniProt O95231 69-178)
# T1 sequence: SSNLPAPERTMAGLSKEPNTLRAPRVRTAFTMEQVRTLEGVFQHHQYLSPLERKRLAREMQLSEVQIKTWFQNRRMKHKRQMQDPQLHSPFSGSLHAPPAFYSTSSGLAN
# T2: En1 HD fragment (UniProt P09065 282-401)
# T2 sequence: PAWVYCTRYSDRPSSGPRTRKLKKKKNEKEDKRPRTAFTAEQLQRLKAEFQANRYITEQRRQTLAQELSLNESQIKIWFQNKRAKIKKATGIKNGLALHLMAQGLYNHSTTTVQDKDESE
# T3: Barx1 HD fragment (UniProt Q9ER42 95-221)
# T3 sequence: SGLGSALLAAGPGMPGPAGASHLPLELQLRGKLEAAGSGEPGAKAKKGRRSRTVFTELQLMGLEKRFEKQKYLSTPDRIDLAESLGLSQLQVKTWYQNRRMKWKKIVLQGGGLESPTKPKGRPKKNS
# B1: Barhl2_SELEX_1+1 (dsDNA)
# DNA 1: TATTGTTGCTAAACGGTGGCGTTTAGCGTGTAGTGCGGGCGTGGCT
# DNA 2: AGCCACGCCCGCACTACACGCTAAACGCCACCGTTTAGCAACAATA
# B2: VENTX_SELEX_1 (dsDNA)
# DNA 1: TGAAGTTAAGCCTAATCGATAAACGATTAGCGTTAGGAATAGTGCGGGCGTGGCT
# DNA 2: AGCCACGCCCGCACTATTCCTAACGCTAATCGTTTATCGATTAGGCTTAACTTCA
# B3: Alx1_SELEX_2 (dsDNA)
# DNA 1: TGCGCCTAATTAGATTAACCTGAACAGATAGTGCGGGCGTGGCT
# DNA 2: AGCCACGCCCGCACTATCTGTTCAGGTTAATCTAATTAGGCGCA
# B4: Alx1_SELEX_2+1 (dsDNA)
# DNA 1: TGCGCCTAATTAGGATTAACCTGAACAGATAGTGCGGGCGTGGCT
# DNA 2: AGCCACGCCCGCACTATCTGTTCAGGTTAATCCTAATTAGGCGCA
# B5: Gsx1_HOMER (dsDNA)
# DNA 1: TCACACTTAATTACTAATTAATTACGTAGTGCGGGCGTGGCT
# DNA 2: AGCCACGCCCGCACTACGTAATTAATTAGTAATTAAGTGTGA
# B6: Msx2_SELEX_2 (dsDNA)
# DNA 1: TGCGGGGCAATTAAATACCAATTAGTGATAGTGCGGGCGTGGCT
# DNA 2: AGCCACGCCCGCACTATCACTAATTGGTATTTAATTGCCCCGCA
# B7: En1_SELEX_2 (dsDNA)
# DNA 1: TGTAGGATAATTGGGTAATTAGTGCAGATAGTGCGGGCGTGGCT
# DNA 2: AGCCACGCCCGCACTATCTGCACTAATTACCCAATTATCCTACA
# B8: Gsx1_HOMER+1 (dsDNA)
# DNA 1: TCACACTTAATTACTGAATTAATTACGTAGTGCGGGCGTGGCT
# DNA 2: AGCCACGCCCGCACTACGTAATTAATTCAGTAATTAAGTGTGA
# B9: Arx_SELEX_1+1 (dsDNA)
# DNA 1: TGCGTTGCTAATTGGAATTAGCACACGTGCTAGTGCGGGCGTGGCT
# DNA 2: AGCCACGCCCGCACTAGCACGTGTGCTAATTCCAATTAGCAACGCA
# B10: Dlx2_HOMER (dsDNA)
# DNA 1: TTCATGGGTAATTAGGTGTTATTATAGTGCGGGCGTGGCT
# DNA 2: AGCCACGCCCGCACTATAATAACACCTAATTACCCATGAA
# B11: Barhl2_SELEX_1 (dsDNA)
# DNA 1: TATTGTTGCTAAACGGTGCGTTTAGCGTGTAGTGCGGGCGTGGCT
# DNA 2: AGCCACGCCCGCACTACACGCTAAACGCACCGTTTAGCAACAATA
# B12: Dlx2_SELEX_2 (dsDNA)
# DNA 1: TTCATGCAATTACTGCTAATTGCCACTATAGTGCGGGCGTGGCT
# DNA 2: AGCCACGCCCGCACTATAGTGGCAATTAGCAGTAATTGCATGAA
# B13: Alx4_SELEX_1 (dsDNA)
# DNA 1: TGTGTCTTAATTAGATTAACGCACTTGATAGTGCGGGCGTGGCT
# DNA 2: AGCCACGCCCGCACTATCAAGTGCGTTAATCTAATTAAGACACA
# B14: En1_SELEX_2+1 (dsDNA)
# DNA 1: TGTAGGATAATTGGGGTAATTAGTGCAGATAGTGCGGGCGTGGCT
# DNA 2: AGCCACGCCCGCACTATCTGCACTAATTACCCCAATTATCCTACA
# B15: Arx_SELEX_1 (dsDNA)
# DNA 1: TGCGTTGCTAATTGAATTAGCACACGTGCTAGTGCGGGCGTGGCT
# DNA 2: AGCCACGCCCGCACTAGCACGTGTGCTAATTCAATTAGCAACGCA
# B16: VENTX_SELEX_1+1 (dsDNA)
# DNA 1: TGAAGTTAAGCCTAATCGATAGAACGATTAGCGTTAGGAATAGTGCGGGCGTGGCT
# DNA 2: AGCCACGCCCGCACTATTCCTAACGCTAATCGTTCTATCGATTAGGCTTAACTTCA
# B17: MSX1_SELEX_1 (dsDNA)
# DNA 1: TGCGAACAGAAGCCAATTAGTGCTAATTGGCCAATTAGCTAGTGCGGGCGTGGCT
# DNA 2: AGCCACGCCCGCACTAGCTAATTGGCCAATTAGCACTAATTGGCTTCTGTTCGCA
# B18: Msx2_SELEX_2+1 (dsDNA)
# DNA 1: TGCGGGGCAATTAAATGACCAATTAGTGATAGTGCGGGCGTGGCT
# DNA 2: AGCCACGCCCGCACTATCACTAATTGGTCATTTAATTGCCCCGCA
# B19: Gsx2_SELEX_2 (dsDNA)
# DNA 1: TCCAACAGTCATTAAACTCTCATTATCGTAGTGCGGGCGTGGCT
# DNA 2: AGCCACGCCCGCACTACGATAATGAGAGTTTAATGACTGTTGGA
# B20: Barx1_SELEX_2 (dsDNA)
# DNA 1: TATTCGAAACAATTAAATAACGATTACTGTAGTGCGGGCGTGGCT
# DNA 2: AGCCACGCCCGCACTACAGTAATCGTTATTTAATTGTTTCGAATA
# B21: HESX1_HOMER (dsDNA)
# DNA 1: TCTTCTCTAATTAGTGCTAATTCTGTAGTGCGGGCGTGGCT
# DNA 2: AGCCACGCCCGCACTACAGAATTAGCACTAATTAGAGAAGA
# B22: Gsx2_SELEX_1 (dsDNA)
# DNA 1: TCCAACAACAATTAAAAACATATTAACGTAGTGCGGGCGTGGCT
# DNA 2: AGCCACGCCCGCACTACGTTAATATGTTTTTAATTGTTGTTGGA
# B23: Barx1_SELEX_2+1 (dsDNA)
# DNA 1: TATTCGAAACAATTAAATAGACGATTACTGTAGTGCGGGCGTGGCT
# DNA 2: AGCCACGCCCGCACTACAGTAATCGTCTATTTAATTGTTTCGAATA
# B24: Alx4_SELEX_1+1 (dsDNA)
# DNA 1: TGTGTCTTAATTAGGATTAACGCACTTGATAGTGCGGGCGTGGCT
# DNA 2: AGCCACGCCCGCACTATCAAGTGCGTTAATCCTAATTAAGACACA
# B25: HESX1_HOMER+1 (dsDNA)
# DNA 1: TCTTCTCTAATTAGTGGCTAATTCTGTAGTGCGGGCGTGGCT
# DNA 2: AGCCACGCCCGCACTACAGAATTAGCCACTAATTAGAGAAGA
# B26: MSX1_SELEX_1+1 (dsDNA)
# DNA 1: TGCGAACAGAAGCCAATTAGTGGCTAATTGGCCAATTAGCTAGTGCGGGCGTGGCT
# DNA 2: AGCCACGCCCGCACTAGCTAATTGGCCAATTAGCCACTAATTGGCTTCTGTTCGCA
# Tests used:
# Barhl2 HD fragment = Barhl2 HD fragment (UniProt Q8VIB5 190-316); assay: EMSA; EMSA, 34 nM IRDye700 probe, room temperature 20 min, 4% polyacrylamide gel 150 V 2 h; binding buffer as in cited ref 35 (not given); conditions: protein: recombinant; tags: N-terminal 6xHis (pET-14b or pET-14P; may be cleaved); label: 5' IRDye700 on bottom strand; blunt
# Chain of Barhl2 HD fragment (Q8VIB5 190-316): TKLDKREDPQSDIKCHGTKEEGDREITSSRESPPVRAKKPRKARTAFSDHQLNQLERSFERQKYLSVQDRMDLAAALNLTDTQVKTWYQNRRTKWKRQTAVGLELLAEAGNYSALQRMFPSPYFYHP
# VENTX HD fragment = molecular target: T1, VENTX HD fragment; assay: as above; conditions: protein: recombinant; tags: N-terminal 6xHis (pET-14b or pET-14P; may be cleaved); chain copies: 2; label: 5' IRDye700 on bottom strand; blunt
# Alx1 (Cart1) HD fragment = Alx1 (Cart1) HD fragment (UniProt Q8C8B0 105-220); assay: as above; conditions: protein: recombinant; tags: N-terminal 6xHis (pET-14b or pET-14P; may be cleaved); chain copies: 2; label: 5' IRDye700 on bottom strand; blunt
# Chain of Alx1 (Cart1) HD fragment (Q8C8B0 105-220): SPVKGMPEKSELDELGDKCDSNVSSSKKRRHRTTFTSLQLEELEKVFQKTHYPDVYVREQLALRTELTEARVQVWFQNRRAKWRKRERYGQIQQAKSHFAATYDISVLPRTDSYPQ
# Gsx1 HD fragment = Gsx1 HD fragment (UniProt P31315 127-261); assay: as above; conditions: protein: recombinant; tags: N-terminal 6xHis (pET-14b or pET-14P; may be cleaved); chain copies: 2; label: 5' IRDye700 on bottom strand; blunt
# Chain of Gsx1 HD fragment (P31315 127-261): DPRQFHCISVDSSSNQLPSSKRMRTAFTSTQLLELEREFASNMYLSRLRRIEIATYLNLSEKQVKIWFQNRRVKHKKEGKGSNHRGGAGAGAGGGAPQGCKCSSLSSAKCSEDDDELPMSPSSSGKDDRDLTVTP
# Msx2 HD fragment = Msx2 HD fragment (UniProt Q03358 99-227); assay: as above; conditions: protein: recombinant; tags: N-terminal 6xHis (pET-14b or pET-14P; may be cleaved); chain copies: 2; label: 5' IRDye700 on bottom strand; blunt
# Chain of Msx2 HD fragment (Q03358 99-227): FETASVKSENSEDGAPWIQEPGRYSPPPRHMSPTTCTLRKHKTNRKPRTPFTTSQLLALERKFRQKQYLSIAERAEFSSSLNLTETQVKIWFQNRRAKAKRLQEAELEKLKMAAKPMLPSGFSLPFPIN
# En1 HD fragment = molecular target: T2, En1 HD fragment; assay: as above; conditions: protein: recombinant; tags: N-terminal 6xHis (pET-14b or pET-14P; may be cleaved); label: 5' IRDye700 on bottom strand; blunt
# Arx HD fragment = Arx HD fragment (UniProt O35085 292-420); assay: as above; conditions: protein: recombinant; tags: N-terminal 6xHis (pET-14b or pET-14P; may be cleaved); chain copies: 2; label: 5' IRDye700 on bottom strand; blunt
# Chain of Arx HD fragment (O35085 292-420): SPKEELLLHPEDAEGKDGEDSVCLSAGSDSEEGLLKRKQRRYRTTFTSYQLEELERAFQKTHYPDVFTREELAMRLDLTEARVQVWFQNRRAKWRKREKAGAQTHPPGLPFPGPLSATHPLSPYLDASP
# Dlx2 HD fragment = Dlx2 HD fragment (UniProt P40764 137-229); assay: EMSA; 20 and 80 nM protein; monomer; EMSA, 34 nM IRDye700 probe, room temperature 20 min, 4% polyacrylamide gel 150 V 2 h; binding buffer as in cited ref 35 (not given); conditions: protein: recombinant; tags: N-terminal 6xHis (pET-14b or pET-14P; may be cleaved); label: 5' IRDye700 on bottom strand; blunt
# Chain of Dlx2 HD fragment (P40764 137-229): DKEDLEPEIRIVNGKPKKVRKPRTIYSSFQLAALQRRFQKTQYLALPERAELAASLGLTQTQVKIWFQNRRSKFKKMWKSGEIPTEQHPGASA
# Alx4 HD fragment = Alx4 HD fragment (UniProt O35137 157-291); assay: EMSA; EMSA, 34 nM IRDye700 probe, room temperature 20 min, 4% polyacrylamide gel 150 V 2 h; binding buffer as in cited ref 35 (not given); conditions: protein: recombinant; tags: N-terminal 6xHis (pET-14b or pET-14P; may be cleaved); chain copies: 2; label: 5' IRDye700 on bottom strand; blunt
# Chain of Alx4 HD fragment (O35137 157-291): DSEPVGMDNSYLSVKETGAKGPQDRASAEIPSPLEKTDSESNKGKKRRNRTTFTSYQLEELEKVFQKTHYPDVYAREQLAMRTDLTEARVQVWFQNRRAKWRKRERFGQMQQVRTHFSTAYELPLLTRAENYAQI
# MSX1 HD fragment = MSX1 HD fragment (UniProt P28360 131-258); assay: as above; conditions: protein: recombinant; tags: N-terminal 6xHis (pET-14b or pET-14P; may be cleaved); label: 5' IRDye700 on bottom strand; blunt
# Chain of MSX1 HD fragment (P28360 131-258): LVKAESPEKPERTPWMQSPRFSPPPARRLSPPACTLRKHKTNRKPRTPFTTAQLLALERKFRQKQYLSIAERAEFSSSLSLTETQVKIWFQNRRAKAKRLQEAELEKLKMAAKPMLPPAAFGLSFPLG
# Gsx2 HD fragment = Gsx2 HD fragment (UniProt P31316 167-305); assay: EMSA; 100 and 400 nM protein; EMSA, 34 nM IRDye700 probe, room temperature 20 min, 4% polyacrylamide gel 150 V 2 h; binding buffer as in cited ref 35 (not given); conditions: protein: recombinant; tags: N-terminal 6xHis (pET-14b or pET-14P; may be cleaved); chain copies: 2; label: 5' IRDye700 on bottom strand; blunt
# Chain of Gsx2 HD fragment (P31316 167-305): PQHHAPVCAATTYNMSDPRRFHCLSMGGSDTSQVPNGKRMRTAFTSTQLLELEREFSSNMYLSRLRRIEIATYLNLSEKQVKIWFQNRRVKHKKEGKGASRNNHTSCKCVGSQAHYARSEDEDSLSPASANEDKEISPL
# Barx1 HD fragment = molecular target: T3, Barx1 HD fragment; assay: EMSA; EMSA, 34 nM IRDye700 probe, room temperature 20 min, 4% polyacrylamide gel 150 V 2 h; binding buffer as in cited ref 35 (not given); conditions: protein: recombinant; tags: N-terminal 6xHis (pET-14b or pET-14P; may be cleaved); chain copies: 2; label: 5' IRDye700 on bottom strand; blunt
# HESX1 HD fragment = HESX1 HD fragment (UniProt Q9UBX0 65-185); assay: as above; conditions: protein: recombinant; tags: N-terminal 6xHis (pET-14b or pET-14P; may be cleaved); label: 5' IRDye700 on bottom strand; blunt
# Chain of HESX1 HD fragment (Q9UBX0 65-185): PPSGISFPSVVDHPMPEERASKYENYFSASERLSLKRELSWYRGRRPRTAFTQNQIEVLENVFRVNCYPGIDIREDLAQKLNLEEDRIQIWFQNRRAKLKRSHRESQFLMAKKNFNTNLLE
binder,measurement,setting,value
B1,cooperativity factor (tau),Barhl2 HD fragment,6.4 ± 1.2 Tau cooperativity factor
B2,cooperativity factor (tau),VENTX HD fragment,36.7 ± 3.9 Tau cooperativity factor
B3,cooperativity factor (tau),Alx1 (Cart1) HD fragment,126 ± 27.2 Tau cooperativity factor
B4,cooperativity factor (tau),Alx1 (Cart1) HD fragment,10.1 ± 9.7 Tau cooperativity factor
B5,cooperativity factor (tau),Gsx1 HD fragment,48.7 ± 12.9 Tau cooperativity factor
B6,cooperativity factor (tau),Msx2 HD fragment,14 ± 2.6 Tau cooperativity factor
B7,cooperativity factor (tau),En1 HD fragment,0.1 ± 0.1 Tau cooperativity factor
B8,cooperativity factor (tau),Gsx1 HD fragment,2.9 ± 0.9 Tau cooperativity factor
B9,cooperativity factor (tau),Arx HD fragment,36.4 ± 11.5 Tau cooperativity factor
B10,binding result,Dlx2 HD fragment,binds
B11,cooperativity factor (tau),Barhl2 HD fragment,5.4 ± 0.58 Tau cooperativity factor
B12,binding result,Dlx2 HD fragment,binds
B13,cooperativity factor (tau),Alx4 HD fragment,167 ± 23.1 Tau cooperativity factor
B14,cooperativity factor (tau),En1 HD fragment,0.2 ± 0.1 Tau cooperativity factor
B15,cooperativity factor (tau),Arx HD fragment,168 ± 50.7 Tau cooperativity factor
B16,cooperativity factor (tau),VENTX HD fragment,3.3 ± 3 Tau cooperativity factor
B17,cooperativity factor (tau),MSX1 HD fragment,1.2 ± 0.1 Tau cooperativity factor
B18,cooperativity factor (tau),Msx2 HD fragment,2.1 ± 0.6 Tau cooperativity factor
B19,binding result,Gsx2 HD fragment,binds
B20,cooperativity factor (tau),Barx1 HD fragment,4.4 ± 0.6 Tau cooperativity factor
B21,cooperativity factor (tau),HESX1 HD fragment,1.7 ± 2 Tau cooperativity factor
B22,binding result,Gsx2 HD fragment,binds
B23,cooperativity factor (tau),Barx1 HD fragment,0.7 ± 0.2 Tau cooperativity factor
B24,cooperativity factor (tau),Alx4 HD fragment,1.1 ± 0.8 Tau cooperativity factor
B25,cooperativity factor (tau),HESX1 HD fragment,1.3 ± 1.8 Tau cooperativity factor
B26,cooperativity factor (tau),MSX1 HD fragment,1.2 ± 0.2 Tau cooperativity factor
